{
  "source": "paper PMC3695782",
  "about": "“Hypersusceptibility mechanism of Tenofovir-resistant HIV to EFdA”",
  "target": "HIV-1 reverse transcriptase WT (Human immunodeficiency virus type 1, UniProt P04585;P04585 588-1147;588-1027)",
  "test": "site-specific Fe2+ footprinting; 6 mM MgCl2, 1 uM EFdA-TP, 1 mM Fe2+, varied dTTP; RT 600 nM, T/P 100 nM; mainly pre-translocation; Footprinting: 120 mM sodium cacodylate pH 7, 20 mM NaCl, 6 mM MgCl2, 1 uM EFdA-TP, 7 min pre-incubation with dTTP, then 1 mM ammonium iron sulfate 5 min; temperature not given; EMSA conditions not in the material",
  "details": "protein: recombinant; copies: 1;1; label: 5'-Cy3 on template Td43; template 5' overhang 12 nt after EFdA-MP addition; other end blunt",
  "data": [
    {"binder": "Td43/Pd30-EFdA-MP (dsDNA, EFdA-MP (4'-ethynyl-2-fluoro-2'-deoxyadenosine monophosphate) as 3'-terminal nucleotide of primer, written A; added in situ by RT to Pd30 (S9)) DNA 1: CCATAGATAGCATTGGTGCTCGAACAGTGACAATCAGTGTAGA DNA 2: TCTACACTGATTGTCACTGTTCGAGCACCAA", "values": [
      {"measurement": "binding result", "result": "binds"}
    ]}
  ]
}
